This passage reports Km and kcat/Km results from PMC3839082.

Substrate in the data set: Nc1ncnc2c1ncn2[C@@H]1O[C@H](COP(=O)(O)OP(=O)(O)OP(=O)(O)O)[C@@H](O)[C@H]1O
Briefly: purified protein. It is filed as biochemical, Homo sapiens. The settings on record: Mg2+ ATP binding site.

B1: hCINAP (Homo sapiens) (protein)
chain: MLLPNILLTGTPGVGKTTLGKELASKSGLKYINVGDLAREEQLYDGYDEEYDCPILDEDRVVDELDNQMREGGVIVDYHGCDFFPERWFHIVFVLRTDTNVLYERLETRGYNEKKLTDNIQCEIFQVLYEEATASYKEEIVHQLPSNKPEELENNVDQILKWIEQWIKDHNS
On to B1, for which the Km is 45 ± 5 µM and the kcat/Km was found to be 140 M⁻¹ s⁻¹.

B2: hCINAP-H79G (Homo sapiens; H79G) (protein)
chain: MLLPNILLTGTPGVGKTTLGKELASKSGLKYINVGDLAREEQLYDGYDEEYDCPILDEDRVVDELDNQMREGGVIVDYGGCDFFPERWFHIVFVLRTDTNVLYERLETRGYNEKKLTDNIQCEIFQVLYEEATASYKEEIVHQLPSNKPEELENNVDQILKWIEQWIKDHNS
With B2, the Km came to 93 ± 8 µM.

A word on the Km: it is the substrate concentration at which the rate is half of its maximum. A word on the kcat/Km: it is the turnover number divided by the Michaelis constant.
